Molecular target: Staphylococcal enterotoxin G, wild type (Staphylococcus aureus (staphylococcal)) (UniProt P0A0L8)
Experiment: SPR

In the case of Soluble mouse TCR β chain Vβ8.2 protein, the Kd is reported as 370 nM.

Reference: publication PMC7338481
